Two molecules from US20050244902A1 can be followed below.

This experiment concerns the target antiserum 98192. Briefly: RIA, displacement of 125I-proBNP 1-10Tyr tracer from antiserum 98192.

With LGSPGSASDLETSGLQEQR, the ratio of median inhibitory dose (ID50) turned out to be 0.0006.

PLGSPGSASDLETSGLQEQR [N-terminal truncated fragment of human proBNP 1-21 with the N-terminal histidine removed]: the ratio of median inhibitory dose (ID50) amounted to 0.001.
